Data on one compound can be found in PMC8751750, “Effect of using different co-ligands during ^99mTc-labeling of J18 peptide on SK-MES-1 cell binding and tumor targeting” (Iranian Journal of Basic Medical Sciences, 2021).

Data set [1] in a line: Biodistribution in normal mice. To be noted: normal female NMRI mice, i.v. 1 μg in 100 μl (18.5 MBq), mean±SD, n=4. It is filed as in vivo. The procedure:
All animal investigations were approved by Mazandaran University of Medical Sciences Research and Ethical Committee in Sari, Iran. Twelve normal female NMRI mice (20–30 g) were randomly divided into three groups of four. 1 μg of (^99mTc) Tc –HYNIC–J18 peptide in 100 μl of buffer (18.5 MBq) was injected into the tail vein. All animals were sacrificed one, four, and twenty-four hours following radiolabeled peptide injection. Mice were euthanized with an appropriate dose of ketamine/xylazine (Sigma, USA) diluted with sterile water (1:3 v/v). Following deep anesthesia, blood was extracted by heart puncture with a 1-mL syringe washed with diluted heparin. Blood, liver, spleen, salivary gland, stomach, kidney, muscle, and bone samples were dissected and weighed, and radioactivity was measured. Except for the intestines, which were computed as a percentage of the injected dose per gram tissue (percent ID/g), the tissue uptake data was calculated as a percentage of the administered dose per total sample.

The test system of data set [2] is SK-MES-1, A-549, SKOV-3 and MCF-7 cells. The data set is described as follows: In vitro receptor binding of radiolabeled peptides on four cell lines. On the set-up: species or system human. The note with it: 40 nM radiolabeled peptide, 2 hr at 37 °C. The procedure: (§1) The in vitro receptor binding of the^ 99mTc-labeled peptide was evaluated using SK-MES-1 a human lung squamous cell carcinoma, SKOV-3 human ovarian carcinoma, and A-549 human lung adenocarcinoma epithelial and MCF-7 human breast cancer cell lines. All cell lines were kept at 37 °C in a 5% CO2 incubator and were maintained in Dulbecco’s DMEM-high glucose supplemented with 10% FBS. Cells were plated in 24-well plates at a density of 4×10^5 cells/well in 1 ml of complete medium and incubated for 24 hr to allow in cells to settle. Following a wash with cold serum-free media or PBS, 40 nM radiolabeled peptides in the full medium were given to the cells, which were then incubated at 37 °C for 2 hr. Finally, cells in culture plates were trypsinized and released, and radioactivity in the cells was measured. To determine specific versus nonspecific binding, SK-MES-1 cells were seeded into 12-well plates at a density of 5×10^5 cells/well and incubated with unlabeled peptides at a concentration 500-fold higher than the labeled peptide for 20 min at 37 °C, followed by the addition of the radiolabeled peptide to the wells. These cells were incubated for 2 hr at 37 °C in a humidified incubator.

Data set [3] in a line: Biodistribution in SK-MES-1 xenografted nude mice. Type of data set: in vivo, female C57 nu/nu mice. To be noted: female, C57 nu/nu, mouse, in vivo, iv, total radioactivity, SK-MES-1 xenograft nude mice, n=4. The procedure:
(§2) The tumor biodistribution and targeting properties of the radiolabeled peptides were carried out in female C57 nu/nu mice bearing SK-MES-1 (Pasture Institute, North Branch and Amol, Iran). The tumor was grafted by subcutaneous injection of SK-MES-1 cells at a concentration of 4×10^6 cells/mouse into the right front flank of the mice and left to grow over a period of 20 days. The mice were ready for biodistribution when tumor size reached 0.7–1 cm^3 in mean diameter, all mice received intravenous co-injections of (^99mTc) Tc-HYNIC-(Ser)3-J18 peptide 1 or (^99mTc )Tc-HYNIC-(Ser)3-J18 peptide 2 (1 μg in 100 μl buffer) after 1, 2, and 4 hr post-injection, respectively (n=4 mice per group). In order to measure the radiopeptides’ nonspecific uptake of the radiopeptides, one group of four animals was injected with 300 μg of non-labeled peptide in a 50 μl buffer. The mice in the blocking group were euthanized 2 hr after the injection. Mice organ and tissue samples were collected, and radioactivity uptake was calculated as a percentage of the administered dose per gram tissue (%ID/g).

The test system of a further data set is SK-MES-1 tumors. The data set can be described thus: Biodistribution in SK-MES-1 xenografted nude mice. It is filed as in vivo, female C57 nu/nu mice. To be noted: SK-MES-1 xenograft nude mice, mean ± SD, n=4. The procedure: as §2
For a further data set, the system named is A-549 cells. The note with it: previously reported, listed as 99mTc-HYNIC-(Ser)3-J18 (tricine/EDDA); cited from earlier work. From the text: Table 1 Overview of affinity binding ^99mTc-HYNIC-(Ser)3-J18 on SK-MES-1 vs A-549 cell line | column: A-549 / Tricine; A-549 / tricine/EDDA
For data set [4], the system named is SK-MES-1 cells. The data set can be described thus: Specific binding (blocking with unlabeled peptide) on SK-MES-1 cells. On the set-up: species or system human. To be noted: listed as 99mTc-peptide 2. The procedure: as §1
Data set [5] has as its system SK-MES-1 cells. The data set can be described thus: Saturation binding assay on SK-MES-1 cells. On the set-up: species or system human. The procedure: The affinities of (^99mTc) Tc-HYNIC-peptides were determined utilizing a saturation binding experiment with cultivated cells in vitro for determination of the dissociation constant as KD and the number of binding sites per cell (Bmax). SK-MES-1 cells were incubated for 2 hr at 37 °C with increasing concentrations of (^99mTc) Tc- HYNIC- peptides (0.1, 0.5, 1, 2.5, 5, 25, and 50 nM). One dish served as a blocking sample, and it was immersed in a blocking solution containing a 500-fold excess of the non-labeled peptide. For each concentration, three dishes were utilized. Following incubation, the media was withdrawn, and the cells were trypsinized and collected for Gamma counter activity measurement. Prism 5 software (Ver. 5.0) was used to examine the particular binding data using nonlinear regression.

Entries after “also recorded” stand apart in the source; their conditions may differ. Peptide text beside a SMILES is read from it.

The term Kd denotes a measure of binding affinity in units of concentration. For the compound `CC(C)C[C@H](NC(=O)[C@H](CO)NC(=O)[C@H](CCCNC(=N)N)NC(=O)[C@H](CO)NC(=O)[C@H](CO)NC(=O)[C@H](CO)NC(=O)c1ccc(NN)nc1)C(=O)N[C@@H](Cc1c[nH]c2ccccc12)C(=O)N[C@@H](CO)C(=O)N[C@@H](CC(=O)O)C(=O)N[C@@H](Cc1ccccc1)C(=O)N[C@@H](Cc1ccc(O)cc1)C(=O)N[C@@H](C)C(=O)N[C@@H](CO)C(=O)N[C@@H](C)C(=O)N[C@@H](CO)C(=O)N[C@@H](CCCNC(=N)N)C(=O)NCC(=O)N1CCC[C@H]1C(=O)O` [Peptide 2, (^99mTc) Tc-HYNIC-(Ser)3-J18 with tricine/EDDA, metal not drawn] (HELM PEPTIDE1{[NNc1ccc(C(=O)[*:2])cn1].S.S.S.R.S.L.W.S.D.F.Y.A.S.A.S.R.G.P}$$$$V2.0; C-terminus assumed), the “Intestine uptake (with contents)” value in data set [1] (4 hr) is listed as 3.63±1.80 percentage of injected dose per whole sample; in data set [1] (24 hr), 0.59±0.29 percentage of injected dose per whole sample; with SK-MES-1 tumors (1 hr, i.v. 1 μg in 100 μl), 0.78±0.01 percentage of injected dose per whole sample; in the data set with SK-MES-1 tumors (2h-blocked (300 μg non-labeled peptide 0.5 hr before), i.v. 1 μg), 0.23±0.09 percentage of injected dose per whole sample; in the data set on SK-MES-1 tumors (2 hr, i.v. 1 μg in 100 μl), 0.53±0.11 percentage of injected dose per whole sample; in the data set with SK-MES-1 tumors (4 hr, i.v. 1 μg in 100 μl), 0.03±0.01 percentage of injected dose per whole sample. The “cellular affinity, in words” value in data set [2] is “strongest cellular affinity for the SK-MES-1 cell line”. The tissue to tissue ratio at 2 h in data set [3] (1 ug, 2 hr, read-out: Tumor/blood ratio) turned out to be 2.96. In data set [3] (2h-blocked (300 μg non-labeled peptide 0.5 hr before), i.v. 1 μg, mean ± SD, read-out: Tumor uptake), the tissue uptake at 2 h was determined as 0.43 ± 0.05 %ID/g. Also, the Kd was 4.4 ± 0.8 nM in the data set on A-549 cells and 3.64 ± 0.8 nM with SK-MES-1 cells [5] (saturation binding, 0.1-50 nM, 2 hr at 37 °C, blocking with 500-fold excess non-labeled peptide, three dishes per concentration, Prism 5 nonlinear regression, listed as 99mTc-HYNIC-(Ser)3-J18 (tricine/EDDA)). In the data set on SK-MES-1 cells [4] (500-fold unlabeled peptide 20 min at 37 °C, then radiolabeled peptide 2 hr at 37 °C), the “reduction of binding by pre-saturation with unlabeled J18 peptide” value is reported as 7.5 fold. In the data set on SK-MES-1 cells [4], the “specific binding to SK-MES-1, in words” value was “high specificity”. Also, in the data set with SK-MES-1 cells [5] (Figure 4, saturation binding, 2 hr at 37 °C, listed as 99mTc-(EDDA/tricine)-(Ser)3-HYNIC-J18), the Bmax result was “(1.9±0.3)·10^4 binding sites/cell”. In the data set on SK-MES-1 cells [5] (listed as 99mTc-peptide 2), the “binding affinity for SK-MES-1, in words” value is “high binding affinity; also recorded: good receptor-binding affinity”.
